{"source": "paper PMC3905857", "about": "“Structure and properties of the esterase from non-LTR retrotransposons suggest a role for lipids in retrotransposition” (Nucleic Acids Research, 2013)", "proteins": {"B1": {"name": "ZfL2-1_CC, N-terminal construct comprising the coiled coil domain of the ZfL2-1 ORF1p (M15-T91) (domain or fragment, Danio rerio (zebrafish), UniProt Q3LG57 15-91, looked up)", "chain": "MEALELELEEVESQIRALVVRRSRLRERLLAVPNAKAVSSPKVRGNYNHIIPSTSTPRPSLSRPSAPGARLSQASFT", "notes": "ORF1 protein (ORF1p) of the ZfL2-1 non-LTR retrotransposon, Danio rerio, Uniprot Q3LG57, residues M15-T91; Expressed from pETM41P from a codon-optimized synthetic template"}, "B2": {"name": "ZfL2-1 esterase (ZfL2-1_ES) (Danio rerio) (protein)", "chain": "DVAIIGDSIVRHVRAASSKGNKVRTFCFPGARVKNISTQIPTILGAAESPGAVVLHVGTNDTGLRQSEILKKDFRSLIETVRRTSPATQIIVSGPLPTYRRGNERFSRLLALNEWLITWCKEQKLLFANNWNLFWERPRLFRPDGLHPSRAGAELLSDNISRLLRTI", "notes": "esterase domain D136-I302, codon-optimized synthetic gene, pETM41P, E. coli BL21-Star; 19 kDa monomer (MBP apparently removed)"}}, "key": {"[1]": {"target": "the molecule itself", "assay": "SEC-MALS; Superdex 75 (10/300 GL) followed online by MALLS; 20 mM Tris/HCl pH 7.5, 250 mM NaCl, 5 mM MgCl2"}, "purified protein": {"substrate": "CC(=O)Oc1ccc([N+](=O)[O-])cc1", "assay": "purified protein", "assay_type": "biochemical, Danio rerio", "conditions": "20 mM Tris/HCl pH 7.5, 250 mM NaCl, 5 mM MgCl2, 25°C"}}}
{"protein": "B1", "values": [{"measurement": "stoichiometry N", "setting": "[1]", "value": 2}]}
{"protein": "B2", "values": [{"measurement": "Km", "setting": "purified protein", "value": "430 ± 100", "unit": "µM"}, {"measurement": "kcat", "setting": "purified protein", "value": "0.32 ± 0.07", "unit": "s⁻¹"}]}
